This is an account of results in article PMC10350235.

This assay has as its target endogenous cTn(I-C) dimer (cTnI with TnC) (human (endogenous in heart tissue)) (UniProt P19429). Description: native MS; native top-down MS on a 12-T FTICR, nanoelectrospray by direct infusion, 200 mM ammonium acetate; the heterotrimer was enriched as a whole from heart tissue on NP-Pep, isolated and its subunits ejected by CAD (complex-up, complex-down).

Chain of endogenous cTn(I-C) dimer (cTnI with TnC) (human (endogenous in heart tissue)) (P19429 whole entry, the tested form may be a part): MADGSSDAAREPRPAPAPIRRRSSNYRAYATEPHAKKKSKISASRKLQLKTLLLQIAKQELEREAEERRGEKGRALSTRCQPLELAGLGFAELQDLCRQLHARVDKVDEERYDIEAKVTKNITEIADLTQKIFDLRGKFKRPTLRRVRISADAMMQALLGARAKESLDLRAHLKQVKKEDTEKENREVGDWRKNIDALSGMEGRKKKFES

Regarding “endogenous cardiac troponin T (cTnT) (natural protein)”, the stoichiometry N (cTnT:cTnI:TnC) was determined as 1.
